Source: paper PMC10750099, “Mapping immunological and host receptor binding determinants of SARS-CoV spike protein utilizing the Qubevirus platform” (The Journal of Biological Chemistry, 2023)

Target: T1, recombinant human angiotensin-converting enzyme 2 (human, UniProt Q9BYF1 18-740)
T1 construct: also called rhACE2; hACE2
Experiment: phage display biopanning
Conditions: both partners purified

T1 sequence (Q9BYF1 18-740): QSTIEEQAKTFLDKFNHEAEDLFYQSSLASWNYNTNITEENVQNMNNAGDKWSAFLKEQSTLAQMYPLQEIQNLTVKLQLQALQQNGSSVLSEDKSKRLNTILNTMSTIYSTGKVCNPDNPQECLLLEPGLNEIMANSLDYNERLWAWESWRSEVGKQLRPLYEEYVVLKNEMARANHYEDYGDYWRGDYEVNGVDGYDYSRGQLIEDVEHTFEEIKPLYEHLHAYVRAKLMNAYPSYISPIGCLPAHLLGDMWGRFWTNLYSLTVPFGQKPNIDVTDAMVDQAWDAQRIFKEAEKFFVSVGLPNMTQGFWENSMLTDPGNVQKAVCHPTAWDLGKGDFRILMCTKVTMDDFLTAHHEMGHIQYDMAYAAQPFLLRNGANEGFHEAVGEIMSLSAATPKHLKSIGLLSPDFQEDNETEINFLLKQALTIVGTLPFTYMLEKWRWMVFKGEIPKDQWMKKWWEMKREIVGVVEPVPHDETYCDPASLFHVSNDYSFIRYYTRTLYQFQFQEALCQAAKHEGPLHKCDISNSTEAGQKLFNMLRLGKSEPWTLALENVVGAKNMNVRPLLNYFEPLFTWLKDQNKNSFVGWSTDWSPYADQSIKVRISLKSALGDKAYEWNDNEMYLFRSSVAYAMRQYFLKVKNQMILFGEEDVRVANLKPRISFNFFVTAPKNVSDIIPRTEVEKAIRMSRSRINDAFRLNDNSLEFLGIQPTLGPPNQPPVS

B1: recombinant Qβ phage QβF6 displaying SARS-CoV spike fragment F6 (S425-525) at the C terminus of the A1 minor coat protein (domain or fragment)
chain: not shown
notes: also called GF6; QF6
binding result: binds
